IntAct's records for PubMed 24876499

B1: Phosphatidylinositol 4-kinase beta (Homo sapiens), Q9UBF8-2 (parent)
chain: MGDTVVEPAPLKPTSEPTSGPPGNNGGSLLSVITEGVGELSVIDPEVAQKACQEVLEKVKLLHGGVAVSSRGTPLELVNGDGVDSEIRCLDDPPAQIREEEDEMGAAVASGTAKGARRRRQNNSAKQSWLLRLFESKLFDISMAISYLYNSKEPGVQAYIGNRLFCFRNEDVDFYLPQLLNMYIHMDEDVGDAIKPYIVHRCRQSINFSLQCALLLGAYSSDMHISTQRHSRGTKLRKLILSDELKPAHRKRELPSLSPAPDTGLSPSKRTHQRSKSDATASISLSSNLKRTASNPKVENEDEPVRLAPEREFIKSLMAIGKRLATLPTKEQKTQRLISELSLLNHKLPARVWLPTAGFDHHVVRVPHTQAVVLNSKDKAPYLIYVEVLECENFDTTSVPARIPENRIRSTRSVENLPECGITHEQRAGSFSTVPNYDNDDEAWSVDDIGELQVELPEVHTNSCDNISQFSVDSITSQESKEPVFIAAGDIRRRLSEQLAHTPTAFKRDPEDPSAVALKEPWQEKVRRIREGSPYGHLPNWRLLSVIVKCGDDLRQELLAFQVLKQLQSIWEQERVPLWIKPYKILVISADSGMIEPVVNAVSIHQVKKQSQLSLLDYFLQEHGSYTTEAFLSAQRNFVQSCAGYCLVCYLLQVKDRHNGNILLDAEGHIIHIDFGFILSSSPRNLGFETSAFKLTTEFVDVMGGLDGDMFNYYKMLMLQGLIAARKHMDKVVQIVEIMQQGSQLPCFHGSSTIRNLKERFHMSMTEEQLQLLVEQMVDGSMRSITTKLYDGFQYLTNGIM

Variants of: B1
Conditions: with rb11a_human RAB11A

effect of a mutation on the interaction	Variant
decreasing interaction strength	G155D
disrupting interaction strength	Y159A
disrupting interaction strength	Y159A;N162A
disrupting interaction strength	F165A
disrupting interaction strength	N162A
